Patent US20250281410A1, “HIGH-THROUGHPUT PREPARATION OF MICROPARTICLES WITH PULSATILE RELEASE” (William Marsh Rice University, priority 2021, published 2025)

Tests used:
Avastin = assay: Release of active Avastin from microparticles with excipients, activity by ELISA; conditions: excipients added during fabrication
Description: FIGS. 27A-27F show the release of Avastin from microparticles. FIG. 27A is a heat map depicting the sum of the percentage of Avastin inside the microparticles and Avastin released from the microparticles. Data is normalized to amount of Avastin filled into microparticles. […] Avastin activity was measured using an ELISA. The excipients that were studied were bovine serum albumin (BSA) and sorbitol: monosodium glutamate (MSG): magnesium chloride (MgCl2). FIGS. 27B-27I show plots of the release kinetics of the microparticle formulations of FIG. 27A. The release kinetics depicted in FIG. 27B are for a microparticle with 3 μg BSA as an excipient. The release kinetics depicted in FIG. 27C are for a microparticle with 2 μg BSA as an excipient. […]
Due to concern about the thermal stress potential involved when heating up biotherapeutics which may be desirable as a payload of the microparticles described herein, the temperature of the microparticles was measured during the sealing process to determine the peak temperature and duration of exposure to elevated temperature to quantify the thermal stress that the protein might experience (FIG. 25). […] To determine if these temperatures would damage encapsulated biotherapeutics, the stability of horseradish peroxidase (HRP), was assessed after every step in the formulation process (dispensing, drying, and sealing). […]

[1] = cited from earlier work

Q: Which “Avastin remaining after release” value (Avastin) does the source give for “Avastin: a fragile biotherapeutic used to treat certain cancers” here?
A: significant amounts

Q: Which solubility in water [1] does the source give for `CC(C)Cn1cnc2c(N)nc3ccccc3c21` [imiquimod] here?
A: approximately 2 μg/mL
